Reference: patent US20140287419A1, “Compositions Having Dicamba Decarboxylase Activity and Methods of Use” (priority 2013, published 2014)

B1: 69 (protein, listed as Microbacterium testaceum)
chain: MATSTEGQDVTDVHAHLLMPGLHAEVERRVPDEVQAAADLELRRNGLASLQASGRMIGERFPRLTDVRARLAAMDEQGVDRQWVSPSPNHFYPWANEGLATWASGEANRLIAEHVALAPDRLVGLGVVPLQHPHLVVDALDDAVLGRGLAGVEISSFAGDVELSDERLESFWARAAELRAVVFLHPFGCSLDERLDRFYLSNTVGQPTENAVALSHLIFSGVLDRHPGLRLIAAHGGGYLPTAIGRSDRAWRVRPEARGCAHAPSTYLSKLWFDTVVHDERALRWLVEAAGADRVLLGSDFPFDMGLDDPVAFVRGAGLQDAEVSGILGGNAAELLRTRVHA
B2: 75 (protein, listed as Ectocarpus siliculosus)
chain: MAKIDSYTHFACPAFMDHLEAESGHPMVFRGLFSSIPELSDIDLRIRYMDEHGIDVHCLVPLPWLECEPGLHADEGKALEACRIANDEMARVVARFPDRLIGVALIPTTTEQAMIQETTRAVKELGMAGVALFVGPTAKPPDMACFEGLYRTCEELGAVVWMHPCRPQSYADYDSYKGEGSKHQIWNTFGWIYDTSVAMVHIALAGVFRRYPGLKVVTHHHGAMVPFFTARFDTQRRNFQEVEGDDLLEDLRLFYCDTATFGESAANIQQAIDFFGKSQVLFGTDTPMDMGTRGMFTRTTIASVEALGAAPEDKESFYAGNVLDMLGERFAGISGARGAVAARPKGDSTRIAASL
B3: 72 (protein)
chain: MADCPCCVSPKRRRLLGSVSAIAAGMMAGLPALAAQPSTAAAGTGKPLSIDIHAHYYSESFLGLLGGEGKQFGGHFFRNDDSFTFQTPAGGLGPLPMKFIDVEQRVRDMDNSGVDVQAISLSVPMVYWADRTLNAKLARAWNTAASDVHRKHPTRFVVLATLPMLNANDAIDELEFAAGLPGVRGIYMGTNINNRDLDDPLFSPIFKRIEQLNLPIFLHPQQTVGGARLADFYLSNLLGNPFDTAIAASHLILGGVLDKYPALHFSLPHAGGALPILVGRIDAGWSMRSETKRVAQKPSSYLRRFSYDTISHSGPTLDFLIRNIGADRLVLGSDYCFDMGYEQPVRFLDRLALPDDQKRMVVGGNAARLLNL
modifications: Cupriavidus necator
B4: 70 (protein, listed as Alicyclobacillus acidocaldarius)
chain: MAIEPNRAADVHTHFLPTEVLEFLKREPRIQVDLERRAPDKEPFLTVEGRWSFELKRMFVDFEAFASAYRQAGIGLALVSPLPQLFVYHLPAEMGAQVAEVYNDALRDVLAPHRERFRPLATLPLADPTAAARELERRMDEGFVGAIVGPGVGEALIGDEAFWPLWEVADARRAVLFLHPLLHADPRAARLMLPNLVGVPWETTLAAAHLVLSGLLDRYPGARVLLAHGGGFLPYQIGRIEQGYDVWPQVRGRLQDRPTAYLRRMFYDNVLWSDAALRCLIDVVGADRVLAGSDFPFDLSAWPPRPGADVSVLAGGSGREGRLS
B5: 74 (protein, listed as Ramlibacter tataouinensis)
chain: MATVIDVHTHMFTTKWLELLKKEGGQYNIQTRPDGQQEIFRGNTPVVIPQKGHFDWKLRIQHMDQAGIDVSVVSLTCPNVYWGGEDVSVRAAREANDNVAQAQTAYPDRIRWFASLPWEYMATVIDVHTHMFTTKWLELLKKEGGQYNIQTRPDGQQEIFRGNTPVVIPQKGHFDWKLRIQHMDQAGIDVSVVSLTCPNVYWGGEDVSVRAAREANDNVAQAQTAYPDRIRWFASLPWEYPQRAVEELERSCAQGAAGVMVLANVAGRSLTDPLFAPVWAEIDRRALPVLVHPTDPPGVDLMDMTKFDLSWSVGFMFDTTLAITRMIFEGFFDRYPNLRIIASHGGGTLPYLVGRFEKGDEVELASRRQMKRKPTDYLRHIHYDCITYNLGALQYLISVVGAGQVMFGTDWPHWVHDTRGAFANTAQLPQEQTRAVRGANAQRLFKL
B6: 73 (protein, listed as Sphaerobacter thermophilus)
chain: MARIDAHAHAQPPEYLDALLASGRYESVRDAEGRIVVRERGSRFLTITPQMHHPEQRVAEMDEAGIDMQILSVTTPQVYFLQGQAAVDLARRCNDYLADIVRSYPTRFRALASVPLTADPDAAVREFVRCLDDLGMVGAIIGSNIDGRPIDDPAFDAFYAEADRRATTLFIHPMVPAGIEVMNPYALAPLVGFMFDTTLAVSRLIFSGFFERYPRVKVLVGHLGAAVPYLAGRLDIGWRSYSDCQGIPHPPTEYIRRLYLDTVSFHAPALRCALETVGPDRIVFGSDYPHVIGDVGGAIASIQQALPATTHDGVLGHTAAELFGVSA
B7: 71 (protein, listed as Burkholderia dolosa)
chain: MARAGHRAARTRQSRPGDRTMTCSCCMSAGRRRVLGAFAALAGAPKGPRAASAAQPAAASKPTRGDATARNRHSRALLPGKASASWSATKASGSGGAFAWDDTTFTFRTPAGGLGPLPMKFIDVDARLRDMDASGVDVQALSLSVPMAYWGDRPFNAKLARAWNTAASRVHVRAPDRFVVLATLPMLDATDAIDELERASELPGVRGVYMGTNIDNRDLDDPRFAPVFARIEQLGLPVFLHPQQTVGGARLGDFYLSNLLGNPFDTAIAASHLILGGVLDRHPALHFTLPHAGGALPILVGRLDAGWTVRAETRRLAHQPSGYLRRFSYDTVSHSGPVLNFLIENVGIDRLVLGSDYCFDMGYEQPVRFLDRLDLTPDERAMVIGGNAGRLLRI
B8: 5 (protein, listed as Staphylococcus aureus)
chain: MAQNNMEANQMKSITFEEHYVIEDIQKETMNAISADPKGVPMKVMLEGLEKKTGFTNADELSHHDERIQFMNNQDVQIQVLSYGNGSPSNLVGQKAIELCQKANDQLANYIAQYPNRFVGFATLPINEPEAAAREFERCINDLGFKGALIMGRAQDGFLDQDKYDIIFKTAENLGVPIYLHPAPVNSDIYQSYYKGNYPEVTAATFACFGYGWHIDVGIHAIHLVLSGIFDRYPKLNMIIGHWGEFIPFFLERMDEALFAEHLNHPVSYYFKNNFYITPSGMLTKPQFDLVKKEAGIDRILYAADYPYIEPEKLGVFLDELGLTDEEKEKISYTNGAKLLGLSSNN
B9: 76 (protein, listed as Polymorphum gilvum)
chain: MAKKIDIFNHIWPEPFFKALIAHIGEMTDITMRSGAVPMMTNLDRRFEVMDMFGPDYMQVLSLASPPLEKLADPAKALELSRIGSDSLAELCQRYPERFPAFIGTAPLSNPAAVVGECRRAIEDLGAAGMQIFTNVAGKPLDLAEFEPFFEYMASAGKPVWLHPARGEAFADYQTEKRSEYEIWWTFGWPYETSAAMARLVFSRMFDKYPGLKVITHHAGGMVPFFEGRVGPGWDQMGARTTDRDLAAVRKALKRPHLDYFKEFYADTASFGSRKAIEHAIEFFGEDRVLFASDAPFDPEGGPMYIRETMRCIDSLDLTDAQRRKIYHGNATALLGLSL
B10: 68 (protein, listed as Hoeflea phototrophica)
chain: MAIIDAHTHTLCPAVNEKVAGTIKPDSVPYQRDMSPESKEQDHTQFPELKIMFNQVERRLADMARMGIDRQVIAPAPGQQHYWAEPKLLAEISALQNDHVAELVARAPDRFAGIGTLPMTDPDAAVAEITRATRELGLRVFQIDSRVMERELSDASLDPIYAALEAAGAGLMIHPLGFSNGERLTPFFMVNSVAQPLEELLAFNHLVFGGVLDRFPKLKVYIAHGGGFAPFYIGRFDHAWKVRPEVNRLTPSAPSTYLRRIYFDTCVYRTDHIETLVRTVGADRVMLGSDYPFDMGDTDPLGLLNACQGLSDDEKATISSKVAIDFFGLET

experiment: 14C assay with IPTG-induced recombinant E. coli cells (14CO2 capture from [14C]-carboxyl-labeled dicamba); conditions: IPTG-induced recombinant E. coli cells; [14C]-carboxyl-labeled dicamba; 14CO2 capture

Molecule | Dicamba Decarboxylase Activity
B1 | No
B2 | Low
B3 | Low
B4 | Low
B5 | Low
B6 | Low
B7 | Low
B8 | High
B9 | No
B10 | No

same assay, conditions: dicamba decarboxylation activity of the protein of the given SEQ ID NO

Molecule | Enzymatic Detection level
B1 | No
B2 | Low
B3 | Low
B4 | Low
B5 | Low
B6 | Low
B7 | Low
B8 | High
B9 | No
B10 | No
